Test results taken from US20250109190A1 (BYOMASS, published 2025).

T1: BMP9 (UniProt Q9UK05 320-429)
T1 sequence (looked up): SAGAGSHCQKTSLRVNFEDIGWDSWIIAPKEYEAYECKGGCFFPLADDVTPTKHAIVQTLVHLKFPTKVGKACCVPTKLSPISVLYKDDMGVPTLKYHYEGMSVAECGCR

T2: BMP10 (UniProt O95393 317-424)
T2 sequence (looked up): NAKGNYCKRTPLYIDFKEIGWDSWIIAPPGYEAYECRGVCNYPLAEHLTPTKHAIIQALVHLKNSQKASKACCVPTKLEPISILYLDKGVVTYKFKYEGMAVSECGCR

T3: GDF15 Fc (UniProt Q99988 197-308, limits assumed)
T3 construct: species not given; not shown: Fc part of the fusion
T3 sequence (looked up): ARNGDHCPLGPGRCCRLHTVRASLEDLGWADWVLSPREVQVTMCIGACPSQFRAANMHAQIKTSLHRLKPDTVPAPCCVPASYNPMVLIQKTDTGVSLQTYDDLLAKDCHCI

T4: human GDNF (human, UniProt P39905 78-211, limits assumed)
T4 sequence (looked up): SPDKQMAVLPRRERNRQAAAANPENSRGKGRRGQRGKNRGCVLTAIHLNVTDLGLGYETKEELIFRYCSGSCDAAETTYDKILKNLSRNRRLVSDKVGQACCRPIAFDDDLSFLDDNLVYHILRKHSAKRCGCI

T5: human GDF10 (human, UniProt P55107 369-478)
T5 sequence (looked up): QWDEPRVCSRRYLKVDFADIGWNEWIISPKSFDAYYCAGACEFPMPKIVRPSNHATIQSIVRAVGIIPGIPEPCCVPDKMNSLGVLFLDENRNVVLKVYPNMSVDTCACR

T6: Activin B (UniProt P09529 293-407)
T6 sequence (looked up): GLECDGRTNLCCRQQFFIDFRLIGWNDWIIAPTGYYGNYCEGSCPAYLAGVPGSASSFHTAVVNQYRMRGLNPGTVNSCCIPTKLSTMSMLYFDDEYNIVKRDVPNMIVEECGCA


Tests used:
Experiment in all cases: BLI Octet; IgG, avid
[1] = target: T1, BMP9
[2] = target: T2, BMP10
[3] = target: T3, GDF15 Fc
[4] = target: T4, human GDNF
[5] = target: human GDF8 (human, UniProt O14793 267-375)
[6] = target: T5, human GDF10
[7] = target: human GDF11 (human, UniProt O95390 299-407)
[8] = target: T6, Activin B

Sequence of human GDF11 (O95390 299-407 limits assumed): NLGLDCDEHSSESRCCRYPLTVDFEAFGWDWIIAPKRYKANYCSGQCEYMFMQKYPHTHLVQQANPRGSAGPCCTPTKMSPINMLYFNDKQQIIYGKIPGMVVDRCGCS

Row | Binder | binding result [1] | binding result [2] | binding result [3] | binding result [4] | binding result [5] | binding result [6] | binding result [7] | binding result [8]
1 | Antibody P (Clone P), IgG (antibody, V domains shown, IgG) VH: QVQLVQSGAEVKKPGSSVKVSCKASGGTFDDYAISWVRQAPGQGLEWMGGIIPRFGIANYAQKFQGRVTITADESTSTAYMELSSLRSEDTAVYYCARPPSSGSDWGQGTLVTVSS VL: DIQMTQSPSSVSASVGDRVTITCRASQGIDSWLAWYQQKPGKAPKLLIYAASSLQSGVPSRFSGSGSGTDFTLTISSLQPEDFATYYCQQVHSFPITFGGGTKVEIKR | no binding (tested: 100 nM) | no binding (tested: 100 nM) | no binding (tested: 100 nM) | no binding (tested: 100 nM) | no binding (tested: 100 nM) | no binding (tested: 100 nM) | no binding (tested: 100 nM) | 
2 | Antibody L (Clone L), IgG (antibody, V domains shown, IgG) VH: QVQLQESGPGLVKPSETLSLTCAVSGYSISSGYYWGWIRQPPGKGLEWIGSIYHSGSTYYNPSLKSRVTISVDTSKNQFSLKLSSVTAADTAVYYCAREAGSGYWYLSVYGMDVWGQGTTVTVSS VL: EIVLTQSPATLSVSPGERATLSCRASQSVSSNLAWYQQKPGQAPRLLIYGASTRATGIPARFSGSGSGTEFTLTISSLQSEDFAVYYCQQSDDWPWTFGGGTKVEIKR | no binding (tested: 100 nM) | no binding (tested: 100 nM) | no binding (tested: 100 nM) | no binding (tested: 100 nM) | no binding (tested: 100 nM) | no binding (tested: 100 nM) | no binding (tested: 100 nM) | 
3 | Antibody A (Clone A), IgG (antibody, V domains shown, IgG) VH: QVQLVQSGAEVKKPGASVKVSCKASGYTFTGYYMHWVRQAPGQGLEWMGSINPSSGGTNYAQKFQGRVTMTTDTSTSTAYMELRSLRSDDTAVYYCARARDIAAAGLGAFDYWGQGTLVTVSS VL: EIVLTQSPGTLSLSPGERATLSCRASQSVRSSYLAWYQQKPGQAPRLLIYGASSRATGIPDRFSGSGSGTDFTLTISRLEPEDFAVYYCQQYVSYPRTFGGGTKVEIKR | no binding (tested: 100 nM) | no binding (tested: 100 nM) | no binding (tested: 100 nM) | no binding (tested: 100 nM) | no binding (tested: 100 nM) | no binding (tested: 100 nM) | no binding (tested: 100 nM) | no binding (tested: 100 nM)
4 | Antibody F (Clone F), IgG (antibody, V domains shown, IgG) VH: QVQLVQSGAEVKKPGASVKVSCKASGYTFTGYHIHWVRQVPGQGLEWMGVISAYSGDTNYAQKLQGRVTMTTDTSTSTAYMELRSLRSDDTAVYYCARARDIAALGLGAFDYWGQGTLVTVSS VL: EIVLTQSPATLSVSPGERATLSCRASQSVSSNLAWYQQKPGQAPRLLIYGASDRATGIPARFSGSGSGTEFTLTISSLQSEDFAVYYCIQYSNYPRTFGGGTKVEIKR | no binding (tested: 100 nM) | no binding (tested: 100 nM) | no binding (tested: 100 nM) | no binding (tested: 100 nM) | no binding (tested: 100 nM) | no binding (tested: 100 nM) |  | 
5 | Antibody H (Clone H), IgG (antibody, V domains shown, IgG) VH: QVQLVQSGAEVKKPGASVKVSCKASGYTFTGYHIHWVRQAPGQGLEWMGHISAYSGTTNYAQKLQGRVTMTTDTSTSTAYMELRSLRSDDTAVYYCARARDIAAAGLGAFDYWGQGTLVTVSS VL: EIVLTQSPGTLSLSPGERATLSCRASQSVRSSYLAWYQQKPGQAPRLLIYGASSRATGIPDRFSGSGSGTDFTLTISRLEPEDFAVYYCQQYSNYPRTFGGGTKVEIKR | no binding (tested: 100 nM) | no binding (tested: 100 nM) | no binding (tested: 100 nM) | no binding (tested: 100 nM) | no binding (tested: 100 nM) | no binding (tested: 100 nM) | no binding (tested: 100 nM) | 
6 | Antibody M (Clone M), IgG (antibody, V domains shown, IgG) VH: QLQLQESGPGLVKPSETLSLTCTVSGGSISSSDYYWGWIRQPPGKGLEWIGSIYYPANTYYNPSLKSRVTISVDTSKNQFSLKLSSVTAADTAVYYCARGYWNYGMDVWGQGTTVTVSS VL: not shown | no binding (tested: 100 nM) | no binding (tested: 100 nM) | no binding (tested: 100 nM) | no binding (tested: 100 nM) | no binding (tested: 100 nM) | no binding (tested: 100 nM) | no binding (tested: 100 nM) | 

Continued, values first:

Row | binding result [1] | binding result [2] | binding result [3] | binding result [4] | binding result [5] | binding result [6] | binding result [7] | binding result [8] | Binder
7 | no binding (tested: 100 nM) | no binding (tested: 100 nM) | no binding (tested: 100 nM) | no binding (tested: 100 nM) | no binding (tested: 100 nM) | no binding (tested: 100 nM) |  |  | Antibody E (Clone E), IgG (antibody, V domains shown, IgG) VH: QVQLVQSGAEVKKPGASVKVSCKASGYTFHGYNMHWVRQAPGQGLEWMGSINPYSGYTIYAQKFQGRVTMTRDTSISTAYMELSRLRSDDTAVYYCARARDIAAAGLGAFDYWGQGTLVTVSS VL: EIVLTQSPGTLSLSPGERATLSCRASQSVRSSYLAWYQQKPGQAPRLLIYGASSRATGIPDRFSGSGSGTDFTLTISRLEPEDFAVYYCQQYVSYPRTFGGGTKVEIKR
8 | no binding (tested: 100 nM) | no binding (tested: 100 nM) | no binding (tested: 100 nM) | no binding (tested: 100 nM) | no binding (tested: 100 nM) | no binding (tested: 100 nM) |  |  | Antibody C (Clone C), IgG (antibody, V domains shown, IgG) VH: QVQLVQSGAEVKKPGASVKVSCKASGYTFPGYHMHWVRQAPGQGLEWMGVINPSSGDTNYAQKFQGRVTMTRDTSISTAYMELSRLRSDDTAVYYCARARDIAALGLGAFDYWGQGTLVTVSS VL: EIVLTQSPGTLSLSPGERATLSCRASQSVSSSYLAWYQQKPGQAPRLLIYGASSRAGGIPDRFSGSGSGTDFTLTISRLEPEDFAVYYCQQYVAYPRTFGGGTKVEIKR
9 | no binding (tested: 100 nM) | no binding (tested: 100 nM) | no binding (tested: 100 nM) | no binding (tested: 100 nM) | no binding (tested: 100 nM) | no binding (tested: 100 nM) |  |  | Antibody D (Clone D), IgG (antibody, V domains shown, IgG) VH: QVQLVQSGAEVKKPGASVKVSCKASGYTFFGYSMHWVRQAPGQGLEWMGVINPSSGDTNYAQKFQGRVTMTRDTSISTAYMELSRLRSDDTAVYYCARARDIAALGLGAFDYWGQGTLVTVSS VL: not shown
10 | no binding (tested: 100 nM) | no binding (tested: 100 nM) | no binding (tested: 100 nM) | no binding (tested: 100 nM) | no binding (tested: 100 nM) | no binding (tested: 100 nM) |  |  | Antibody B (Clone B), IgG (antibody, V domains shown, IgG) VH: QVQLVQSGAEVKKPGASVKVSCKASGYTFIGYDMHWVRQAPGQGLEWMGVINPSSGGTNYAQKFQGRVTMTRDTSISTAYMELSRLRSDDTAVYYCARARDIAALGLGAFDYWGQGTLVTVSS VL: not shown
11 | no binding (tested: 100 nM) | no binding (tested: 100 nM) | no binding (tested: 100 nM) | no binding (tested: 100 nM) | no binding (tested: 100 nM) | no binding (tested: 100 nM) | no binding (tested: 100 nM) |  | Antibody N (Clone N), IgG (antibody, V domains shown, IgG) VH: QLQLQESGPGLVKPSETLSLTCTVSGGSISSSDYYWGWIRQPPGKGLEWIGSIYYPASTYYNPSLKSRVTISVDTSKNQFSLKLSSVTAADTAVYYCARGYWNYGMDVWGQGTTVTVSS VL: not shown
